The values below come from article PMC10820826, “Interrogation and validation of the interactome of neuronal Munc18-interacting Mint proteins with AlphaFold2” (The Journal of Biological Chemistry, 2023).

As a reminder, the pKd is the negative decadic logarithm of the Kd, by convention in mol/L. Low values mean a large Kd, high ones a small Kd. The stoichiometry N is a count of units in the complex or per binding partner.

In experiment [1] the target is Munc18-1 + Mint1 (rat | human) (UniProt P61765). The experiment is described as follows: ITC. (In general: In ITC the heat of successive injections is recorded.)
A further experiment addresses Munc18-1-His (rat) (UniProt P61765).

pKd: −log10 of the molar value.

For “Rat Sx1a (Sx1(1-261)-His) (from UniProt P32851 1-261) (domain or fragment)”, in experiment [1], the dH was -29.7 kcal/mol.
Mint1_14 peptide (261-282 A275A/E276A): in the experiment with Munc18-1-His (rat), the negative-log Kd (pKd) is 3.67, the dH was -57.6 kcal/mol and the stoichiometry N was 1.
